The text below walks through data of PMC5971062 (Biochemistry, 2018).

The assay has as its target T1, Enhanced intracellular survival (Eis) protein from Mycobacterium tuberculosis, wild type (Mycobacterium tuberculosis, UniProt P9WFK7).
T1 sequence: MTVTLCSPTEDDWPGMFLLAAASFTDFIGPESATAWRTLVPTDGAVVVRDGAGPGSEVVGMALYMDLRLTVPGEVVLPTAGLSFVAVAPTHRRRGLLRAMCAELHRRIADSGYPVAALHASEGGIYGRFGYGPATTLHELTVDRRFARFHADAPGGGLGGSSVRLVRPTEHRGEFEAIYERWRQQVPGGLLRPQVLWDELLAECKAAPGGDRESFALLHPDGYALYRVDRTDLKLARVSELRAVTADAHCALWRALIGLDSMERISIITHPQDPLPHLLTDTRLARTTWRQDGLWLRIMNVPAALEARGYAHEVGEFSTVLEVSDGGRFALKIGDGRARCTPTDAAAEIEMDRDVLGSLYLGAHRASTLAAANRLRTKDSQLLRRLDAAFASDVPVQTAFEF
Briefly: crystal structure.

B1: HupB_Mtb 9-mer peptide ATKAPAKKA (peptide)
peptide: ATKAPAKKA
Regarding B1, the binding result is recorded as “binds”.
